# According to publication PMC7591906, “pHLIP ICG for delineation of tumors and blood flow during fluorescence-guided surgery” (Scientific Reports, 2020):
# “Also recorded” adds a separate entry of the source. Read-outs that look alike come from different tables or passages of the source. Peptide text beside a SMILES is read from it. * marks the point of attachment. X1 = CC1(C)C(/C=C/C=C/C=C/C=C2/N(CCCCCC(=O)NCCN3C(=O)CC(*)C3=O)c3ccc4ccccc4c3C2(C)C)=[N+](CCCCS(=O)(=O)[O-])c2ccc3ccccc3c21
# How the values were obtained:
# [1] = pH-dependent insertion into POPC liposomes (circular dichroism at 222 nm); format: physicochemical; settings: 5 µM pHLIP ICG, 750 µM POPC liposomes, CD 222 nm, 25.0°C, Henderson-Hasselbalch fit
# Protocol: POPC (1-palmitoyl-2-oleoyl-sn-glycero-3-phosphocholine, Avanti Polar Lipids, Inc.) liposomes were used in biophysical measurements to mimic cell membranes and investigate the pHLIP ICG interactions with lipid bilayers. Large unilamellar vesicles (LUVs) were prepared by extrusion. POPC dissolved in chloroform was desolvated in a rotary evaporator and placed under high vacuum for 2 hours to create a phospholipid film. Lipids were then rehydrated in phosphate buffer (pH8) and repeatedly extruded through membranes with a pore size of 100 nm to make LUVs.
# Circular dichroism (CD) measurements were employed to monitor the pH-dependent insertion of pHLIP ICG into the membrane of POPC liposomes and the formation of helical structure. […] CD spectra were recorded from 200 to 260 nm with steps of 1 nm. The pH-dependent insertion of pHLIP ICG into the lipid bilayer of POPC liposomes was studied by monitoring the changes in the molar ellipticity (measured in millidegrees) at 222 nm as a function of pH. After the addition of aliquots of citric acid, the pHs of solutions containing 5 μM pHLIP ICG and 750 µM POPC liposomes were measured using an Orion PerHecT ROSS Combination pH Micro Electrode and an Orion Dual Star pH and ISE Benchtop Meter before and after each spectrum measurement to ensure that equilibrium is achieved. […]
# [2] = tested on: Salmonella typhimurium strains (TA1535, TA1537, TA98, TA100 and TA102); test: In vitro bacterial reverse mutation test; format: cell-based; settings: up to 5000 µg/plate, with and without S9 mix
# Protocol: The objective of this study performed at CRL was to determine the potential genotoxicity of pHLIP ICG using the bacterial reverse mutation test.
# Salmonella typhimurium strains (TA1535, TA1537, TA98, TA100 and TA102) were treated with pHLIP ICG at a range of concentrations up to 5000 µg/plate (the standard limit dose for this assay), in the presence and absence of a supplemented rat liver fraction (S9 mix), using the plate incorporation version of the bacterial reverse mutation test.
# Bacteria were incubated with standard positive controls, and the response of the various bacterial strains to these agents confirmed the sensitivity of the test system and the activity of the S9 mix.
# [3] = tested on: human peripheral blood lymphocytes; test: In vitro mammalian cell micronucleus test; format: cell-based; settings: up to 0.5 mg/mL
# Protocol: The objective of this study performed at CRL was to determine the potential genotoxicity of pHLIP ICG using an in vitro mammalian cell micronucleus test in human peripheral blood lymphocytes.
# Human peripheral blood lymphocytes were treated with pHLIP ICG at levels up to the standard limit of 0.5 mg/mL. […] The negative control results were within the laboratory negative historical control range. Lymphocytes were also incubated with standard positive controls, which caused statistically significant increases in the proportion of cells with micronuclei, confirming the sensitivity of the test system and the activity of the S9 mix. All criteria for a valid assay were therefore met.
# [4] = Single-dose and 7-days repeat i.v. toxicity with TK in Beagle dogs (GLP); format: in vivo; settings: for AUC(0-t) / C0: 2.16 mg/kg, daily i.v. bolus 2.16 mg/kg
# Protocol: The objectives of this GLP study, performed at CRL, were to determine the potential toxicity of pHLIP ICG, when given by single dose i.v. injection or once daily (i.v. injections) for 7 days in dogs, and to evaluate the potential reversibility of any findings following the single dose injection. In addition, toxicokinetic characteristics of pHLIP ICG were examined.
# The following parameters and end points were evaluated in the study: mortality, clinical observations, body weights, food consumption, ophthalmology and electrocardiology assessments, clinical pathology parameters (hematology, coagulation, clinical chemistry, and urinalysis), toxicokinetic parameters, gross necropsy findings, organ weights, and histopathological examinations.
# [5] = 7-day repeat i.v. toxicity in B6D2F1 mice (GLP); format: in vivo; settings: 13.6 mg/kg/day i.v. for 7 days, incidence and severity decreasing over time
# Protocol: The purpose of this GLP study performed at MSK was to assess the acute and delayed toxicity of a repeat administration of pHLIP ICG in mice. The pHLIP ICG was administered for 7 consecutive days.
# Throughout the study, body weights, clinical signs, clinical pathology (hematology and clinical chemistry), and histopathology were collected.
# [6] = Follow up 7-days repeat i.v. toxicity in male B6D2F1 mice (GLP); format: in vivo
# Protocol: The purpose of this GLP study performed at MSK was to assess the acute and delayed toxicity on the male reproductive system of mice of a repeat administration of pHLIP ICG at different concentrations. The pHLIP ICG was administered once/day for 7 consecutive days.
# Throughout the study, body weights, clinical signs, and histopathology were collected.
compound,measurement,setting,value
CC(C)C[C@H](NC(=O)[C@H](Cc1ccc(O)cc1)NC(=O)[C@H](C)NC(=O)[C@H](CCCNC(=N)N)NC(=O)[C@H](Cc1c[nH]c2ccccc12)NC(=O)[C@@H]1CCCN1C(=O)[C@H](CC(N)=O)NC(=O)[C@H](CCC(N)=O)NC(=O)[C@H](CC(=O)O)NC(=O)[C@H](CC(=O)O)NC(=O)[C@H](CSC1CC(=O)N(CCNC(=O)CCCCCN2/C(=C/C=C/C=C/C=C/C3=[N+](CCCCS(=O)(=O)[O-])c4ccc5ccccc5c4C3(C)C)C(C)(C)c3c2ccc2ccccc32)C1=O)NC(=O)[C@H](C)N)C(=O)N[C@@H](CC(=O)O)C(=O)N[C@@H](CC(C)C)C(=O)N[C@@H](CC(C)C)C(=O)N[C@@H](Cc1ccccc1)C(=O)N1CCC[C@H]1C(=O)N[C@H](C(=O)N[C@@H](CC(=O)O)C(=O)N[C@H](C(=O)N[C@@H](CC(C)C)C(=O)N[C@@H](CC(C)C)C(=O)N[C@@H](CC(C)C)C(=O)N[C@@H](CC(=O)O)C(=O)N[C@@H](CC(C)C)C(=O)N[C@@H](CC(C)C)C(=O)N[C@@H](Cc1c[nH]c2ccccc12)C(=O)N[C@@H](C)C(=O)O)[C@@H](C)O)[C@@H](C)O (stereo partly shown) [pHLIP ICG] (H-AC(X1)DDQNPWRAYLDLLFPTDTLLLDLLWA-OH),Midpoint of the transition (pK) of insertion into liposomes,[1],6.3 pH
same,Toxicity to the bacteria,[2],non-toxic to the bacteria at the levels tested
same,"Mutagenicity, revertant colonies",[2]; plate incorporation,did not show any evidence of genotoxic activity; also recorded: negative for the induction of mutagenicity
same,Cytotoxicity or precipitation in the assay,[3],no pHLIP ICG related cytotoxicity or precipitation was observed
same,Induction of micronuclei,"[3]; 4 h without/with S9, 24 h without S9",did not show any evidence of genotoxic activity; also recorded: negative for the induction of micronuclei
same,Clinical chemistry changes,"[4]; 2.16 mg/kg/day i.v. for 7 days, males and females, non-adverse",minimal decreases in cholesterol
same,AUC(0-t),"[4]; Beagle, dog, in vivo, iv, mean, read-out: AUCTlast, day 1",65400 ng·h/mL
same,AUC(0-t),"[4]; Beagle, dog, in vivo, iv, mean, read-out: AUCTlast, day 7",72300 ng·h/mL
same,C0,"[4]; Beagle, dog, in vivo, iv, mean, read-out: C0, day 1",38400 ng/mL
same,C0,"[4]; Beagle, dog, in vivo, iv, mean, read-out: C0, day 7",42700 ng/mL
same,Cmax,"[4]; both sexes, Beagle, dog, in vivo, iv, 2.16 mg/kg/day for 7 days, mean, males and females, read-out: Cmax at NOAEL",40300 ng/mL
same,NOAEL,"[4]; males and females, 7 days repeated i.v. administration",above 2.16 mg/kg/day
same,Overall toxicity finding,"[4]; single i.v. bolus 0.063, 1.08, 2.16 mg/kg or once daily for 7 days at 2.16 mg/kg/day",did not adversely affect the overall health or condition of the animals
same,Toxicity finding,[5],may be associated with germ cell degeneration in males
same,"Toxicity finding, male reproductive system","[6]; male B6D2F1 mice, 4.92, 7.38, 12.3 mg/kg/day i.v. for 7 days","well tolerated, with no indication of germ cell degeneration or other toxicity to the male reproductive system"
same,NOAEL,"[6]; male and female mice, 7 days repeated i.v. administration",above 12.3 mg/kg/day
